According to patent publication US8765444 (BOARD OF TRUSTEES OF THE UNIVERSITY OF ILLINOIS, dated 2014):

What was measured:
HA-γ134.5 = target: T1, HA-γ134.5 (HSV-1, UniProt P08353 1-263); test: co-immunoprecipitation from transfected 293T cells
T1 sequence: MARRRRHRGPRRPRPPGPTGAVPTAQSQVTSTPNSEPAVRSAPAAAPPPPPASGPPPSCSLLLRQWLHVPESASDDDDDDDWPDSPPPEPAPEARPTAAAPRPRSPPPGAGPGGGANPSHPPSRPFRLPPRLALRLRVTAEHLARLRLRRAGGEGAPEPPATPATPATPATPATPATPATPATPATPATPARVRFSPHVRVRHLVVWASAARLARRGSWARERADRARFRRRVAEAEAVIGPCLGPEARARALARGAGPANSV

[1] = target: T2, TBK1 (as used in Example 6; construct not named) (Homo sapiens (Human), UniProt Q9UHD2 1-729); test: co-immunoprecipitation from transfected 293T cells
T2 construct: also called HA-TBK1 (constructed, probably the one used)
T2 sequence: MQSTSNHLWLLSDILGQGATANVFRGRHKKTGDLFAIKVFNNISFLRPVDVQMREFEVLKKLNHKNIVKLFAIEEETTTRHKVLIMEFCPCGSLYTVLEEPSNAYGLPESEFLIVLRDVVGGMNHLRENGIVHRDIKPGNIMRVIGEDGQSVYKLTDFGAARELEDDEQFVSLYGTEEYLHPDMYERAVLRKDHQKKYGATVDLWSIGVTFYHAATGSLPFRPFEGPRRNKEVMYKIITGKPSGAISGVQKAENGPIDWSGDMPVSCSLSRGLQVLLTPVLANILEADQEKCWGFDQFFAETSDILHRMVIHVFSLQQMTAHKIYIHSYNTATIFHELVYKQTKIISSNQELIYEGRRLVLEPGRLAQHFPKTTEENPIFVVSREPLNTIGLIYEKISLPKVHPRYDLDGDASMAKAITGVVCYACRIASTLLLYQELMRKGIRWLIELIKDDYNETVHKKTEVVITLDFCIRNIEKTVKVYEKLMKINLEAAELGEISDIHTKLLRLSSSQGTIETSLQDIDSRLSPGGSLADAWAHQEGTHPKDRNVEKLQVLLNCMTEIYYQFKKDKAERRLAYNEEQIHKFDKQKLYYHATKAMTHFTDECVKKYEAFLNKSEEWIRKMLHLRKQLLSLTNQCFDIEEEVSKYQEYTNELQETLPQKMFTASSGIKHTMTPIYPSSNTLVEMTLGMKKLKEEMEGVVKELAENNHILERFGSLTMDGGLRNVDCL

B1: FLAG-dN200, a truncated form of Ebola VP35 (other)
chain: NNLNSTTSLTEENFGKPDISAKDLRNIMYDHLPGFGTAFHQLVQVICKLGKDSNSLDIIHAEFQASLAEGDSPQCALIQITKRVPIFQDAAPPVIHIRSRGDIPRACQKSLRPVPPSPKIDRGWVCVFQLQDGKTLGLKI
notes: also called control protein dN200
**Q.** Does B1 bind (HA-γ134.5)?
**A.** no binding

B2: FLAG-γ134.5 Δ106 (other)
chain: MARRRRHRGPRRPRPPGPTGAVPTAQSQVTSTPNSEPAVRSAPAAAPPPPPASGPPPSCSLLLRQWLHVPEPPGAGPGGGANPSHPPSRPFRLPPRLALRLRVTAEHLARLRLRRAGGEGAPEPPATPATPATPATPATPATPATPATPATPATPARVRFSPHVRVRHLVVWASAARLARRGSWARERADRARFRRRVAEAEAVIGPCLGPEARARALARGAGPANSV
notes: the printed limits overlap with the neighbouring deletions, so the exact junction is uncertain
**Q.** Does B2 bind [1]?
**A.** no binding
